In US20250228941, “CELLULAR THERAPY” (UNIVERSITÄt BASEL, published 2025):

Experiments:
Details in all cases: tags: His-tag, Abcam ab198455, labeled with RED-Tris-NTA
[1] = molecular target: T1, PHGDH (D-3-phosphoglycerate dehydrogenase) (Homo sapiens, UniProt O43175 SEQ:1-533); assay: MST; high response amplitude; fitted to Kd model but no value given; 50 nM PHGDH, RNA 13-850 nM; 10 mM Tris HCl, 50 mM KCl, 0.5 mM EDTA, 0.1 mg/ml BSA, 10% glycerol
T1 sequence: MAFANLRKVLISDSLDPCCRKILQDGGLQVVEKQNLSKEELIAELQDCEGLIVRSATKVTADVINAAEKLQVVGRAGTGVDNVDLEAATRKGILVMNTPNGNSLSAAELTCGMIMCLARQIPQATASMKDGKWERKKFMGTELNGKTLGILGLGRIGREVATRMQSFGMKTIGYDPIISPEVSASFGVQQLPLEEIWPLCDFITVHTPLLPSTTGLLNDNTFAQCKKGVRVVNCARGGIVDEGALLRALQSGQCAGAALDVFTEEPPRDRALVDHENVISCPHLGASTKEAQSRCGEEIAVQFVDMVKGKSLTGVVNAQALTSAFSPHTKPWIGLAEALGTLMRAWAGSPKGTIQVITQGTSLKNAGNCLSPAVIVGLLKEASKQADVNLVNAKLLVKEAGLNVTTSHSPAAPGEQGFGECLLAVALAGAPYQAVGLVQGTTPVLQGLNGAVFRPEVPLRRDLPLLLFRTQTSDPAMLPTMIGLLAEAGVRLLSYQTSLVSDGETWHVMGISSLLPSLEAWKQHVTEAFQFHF
Method: (§1) Data were fitted to the Kd model.
(§2) Microscale thermophoresis experiments were performed using a NanoTemper® Monolith NT.115 (NanoTemper Tenchologies, Germany) with blue and red filters. His-tagged PHGDH protein was labeled using the Monolith His-Tag labeling Kit RED-Tris-NTA 2nd generation (SKU: MO-L018), according to manufacturer's protocol (Step B, Step C). Briefly, 90 μl of PHGDH protein (200 nM) was mixed with 90 μl of dye (100 nM) and incubated for 30 min at RT. Samples were centrifuged for 10 min at 4° C. at 15.000×g and transferred into a fresh tube. RNA was brought to a concentration of 1700 nM and a serial dilution of 1:2 over 16 steps in binding buffer (10 mM Tris HCl, 50 mM KCl, 0.5 mM EDTA, 0.1 mg/ml BSA, 10% (v/v) Rnase/Dnase free glycerol) was performed. Fluorescently labeled protein was added at a final concentration of 50 nM to each tube. 16 capillaries were loaded with IRF1 3′UTR RNA (highest concentration 850 nM) and PHGDH protein (50 nM). Samples were measured with the following settings: 20% LED/excitation and medium MST power. At the final dye concentration of 25 nM, the expected fluorescence intensity at 20% LED/excitation is around 300 counts on a Monolith NT.115.

[2] = molecular target: T1, PHGDH (D-3-phosphoglycerate …); assay: MST; low response amplitude; no AU-rich elements; RNA up to 850 nM, same buffer
Method: as §2

[3] = molecular target: T1, PHGDH (D-3-phosphoglycerate …); assay: MST; mutation impeded binding; RNA up to 850 nM, same buffer
Method: as §1, §2

Does AGGAAUUGAACUUUUAAUUGCAUUUAAUAAACUGUAUGUAAAUAGUCA (ssRNA) [IRF1 3'UTR fragment 3 (Fg3)] bind [1]?
Result: binds

Does ACAUGUGCCAGCUAAGCACUUGAAAUGUGGCCAGUGCAAUA (ssRNA) [IRF1 3'UTR fragment 4 (Fg4)] bind [2]?
Result: no binding

Does AGGAAUUGAACCCUUAAUUGCAUUUAAUAAACUGUAUGUAAAUAGUCA (ssRNA) [mutated fragment 3 (muFg3)] bind [3]?
Result: no binding
